This passage reports Km of Ub-AMC hydrolysis (steady-state kinetics, 25 °C) results from PMC7114298.

The experiment deals with MERS-CoV PLpro-[change] (wild type) (MERS-CoV) (UniProt K9N7C7).

For “Ub-AMC (from UniProt P0CG48 1-76) (natural protein)”, the Km of Ub-AMC hydrolysis (steady-state kinetics, 25 °C) came to 16.6 µM.
